Reference: the DeepSol protein solubility set

assay: soluble on expression in E. coli; label from the status in PepcDB or PDB records

Row | Sequence | soluble on expression in E. coli
1 | MGSSHHHHHHSSGLVPRGSHMARQNLKSTDRAVQQMLDKAKREGIQTVWDRYEAMKPQCGFGETGLCCRHCLQGPCRINPFGDEPKVGICGATAEVIVARGLDRSIAAGAAGHSGHAKHLAHTLKKAVQGKAASYMIKDRTKLHSIAKRLGIPTEGQKDEDIALEVAKAALADFHEKDTPVLWVTTVLPPSRVKVLSAHGLIPAGIDHEIAEIMHRTSMGCDADAQNLLLGGLRCSLADLAGCYMGTDLADILFGTPAPVVTESNLGVLKADAVNVAVHGHNPVLSDIIVSVSKEMENEARAAGATGINVVGICCTGNEVLMRHGIPACTHSVSQEMAMITGALDAMILDYQCIQPSVATIAECTGTTVITTMEMSKITGATHVNFAEEAAVENAKQILRLAIDTFKRRKGKPVEIPNIKTKVVAGFSTEAIINALSKLNANDPLKPLIDNVVNGNIRGVCLFAGCNNVKVPQDQNFTTIARKLLKQNVLVVATGCGAGALMRHGFMDPANVDELCGDGLKAVLTAIGEANGLGGPLPPVLHMGSCVDNSRAVALVAALANRLGVDLDRLPVVASAAEAMHEKAVAIGTWAVTIGLPTHIGVLPPITGSLPVTQILTSSVKDITGGYFIVELDPETAADKLLAAINERRAGLGLPW | soluble
2 | MGSSHHHHHHSSGLVPRGSHMASMKQIKKLLVANRGEIAIRIFRAAAELDISTVAIYSNEDKSSLHRYKADESYLVGSDLGPAESYLNIERIIDVAKQANVDAIHPGYGFLSENEQFARRCAEEGIKFIGPHLEHLDMFGDKVKARTTAIKADLPVIPGTDGPIKSYELAKEFAEEAGFPLMIKATSGGGGKGMRIVREESELEDAFHRAKSEAEKSFGNSEVYIERYIDNPKHIEVQVIGDEHGNIVHLFERDCSVQRRHQKVVEVAPSVGLSPTLRQRICDAAIQLMENIKYVNAGTVEFLVSGDEFFFIEVNPRVQVEHTITEMVTGIDIVKTQILVAAGADLFGEEINMPQQKDITTLGYAIQCRITTEDPLNDFMPDTGTIIAYRSSGGFGVRLDAGDGFQGAEISPYYDSLLVKLSTHAISFKQAEEKMVRSLREMRIRGVKTNIPFLINVMKNKKFTSGDYTTKFIEETPELFDIQPSLDRGTKTLEYIGNVTINGFPNVEKRPKPDYELASIPTVSSSKIASFSGTKQLLDEVGPKGVAEWVKKQDDVLLTDTTFRDAHQSLLATRVRTKDMINIASKTADVFKDGFSLEMWGGATFDVAYNFLKENPWERLERLRKAIPNVLFQMLLRASNAVGYKNYPDNVIHKFVQESAKAGIDVFRIFDSLNWVDQMKVANEAVQEAGKISEGTICYTGDILNPERSNIYTLEYYVKLAKELEREGFHILAIKDMAGLLKPKAAYELIGELKSAVDLPIHLHTHDTSGNGLLTYKQAIDAGVDIIDTAVASMSGLTSQPSANSLYYALNGFPRHLRTDIEGMESLSHYWSTVRTYYSDFESDIKSPNTEIYQHEMPGGQYSNLSQQAKSLGLGERFDEVKDMYRRVNFLFGDIVKVTPSSKVVGDMALYMVQNDLDEQSVITDGYKLDFPESVVSFFKGEIGQPVNGFNKDLQAVILKGQEALTARPGEYLEPVDFEKVRELLEEEQQGPVTEQDIISYVLYPKVYEQYIQTRNQYGNLSLLDTPTFFFGMRNGETVEIEIDKGKRLIIKLETISEPDENGNRTIYYAMNGQARRIYIKDENVHTNANVKPKADKSNPSHIGAQMPGSVTEVKVSVGETVKANQPLLITEAMKMETTIQAPFDGVIKQVTVNNGDTIATGDLLIEIEKATD | soluble
3 | MGSSHHHHHHSSGLVPRGSHMKVYYECAPCFLRQAREAIDLATDDEELKLRVMENILELLSERFRRGQVSNELGTRMHRLIKDMTGSEDPYLDEKRRCNEIALRFLPTVRDYLECHSDLESHVKVAITGNIIDFGALGLDFDHDRGIQESLRAPLTINHVPLLEDRLREASEVLYLLDNTGEILFDRPLIEKLAGYDVSVKVAVKGEPILNDACMEDALEAGLDEVAEIVTTGTDSVGIVYSDLSDEFRDMLDGTELVIAKGMGNYEGLTEISDGSRDIFCLLNAKCSAIARDLGVARGDNVAVKI | soluble
4 | MGSSHHHHHHSSGLVPRGSHMMEVGFLGLGIMGKAMSMNLLKNGFKVTVWNRTLSKCDELVEHGASVCESPAEVIKKCKYTIAMLSDPCAALSVVFDKGGVLEQICEGKGYIDMSTVDAETSLKINEAITGKGGRFVEGPVSGSKKPAEDGQLIILAAGDKALFEESIPAFDVLGKRSFYLGQVGNGAKMKLIVNMIMGSMMNAFSEGLVLADKSGLSSDTLLDILDLGAMTNPMFKGKGPSMNKSSYPPAFPLKHQQKDMRLALALGDENAVSMPVAAAANEAFKKARSLGLGDLDFSAVIEAVKFSRE | soluble
